Data as given in a protein production outcome set (Wang et al. 2014).

Assay: label from the status in PepcDB records
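Further: failed if final PepcDB status was selected cloned or expressed and not failed if soluble or beyond.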

Question: With “MKSLVKVSLAALALAFAVSAYAAEKELIVATDTAFVPFEFKQGDKYVGFDIDLWDAIAKKLDLKYTLKPMDFSGIIPALQTKNVDLALAGITITDERKKAVDFSDGYYNSGLLVMVKADNNDIKSEADLQGKVLAVKSGTGSVDYAKANIKTKDLRQFPNIDNAYLELGTGRADAVLHDTPNILYFIKTAGNGQFKAVGESIKAQQYGVAFPQGSDLREKVNAALKSLKEDGTYAEIYKKWFGVEPK” as the sequence, how does the protein production read?
Answer: Its protein production is “failed”.

Question: With “MKTASYAQSFSRAAKEYDAYAYLQQTVARELASWIEGMECESILDLGCGTGALWRALRFKPRFFTGVDLSMEMLDLHPQDPAIRLIQSDFNHPSLYEHSYDLIAASSSLQWSRDLAQSFDLIAKSAQNVAFAIFTSESLWEIHDYVDSHSPIPSKERIESLLKERFAGEFELKRYPLSFPSRVAMLSYLKGSGISGGRRLGFAQSK” as the sequence, how does the protein production read?
Answer: The protein production was “failed”.

Question: With “MKTDLIYGVEDRPPFKDALFAALQHLLAIFVAIITPPLIIASALKLDVEKTSFLVSMSLFASGVSTFIQCRRIGPIGAKLLCIQGTSFSFIGPIIATGLVGGLPLIFGSCIAAAPIEMVVSRTFKYLRNIITPLVSGIVVLLIGLSLIKVGIVSCGGGYSAMDDGSFGSWENLSIAALVLLSVLFFNRCKNKYLRMSSIVFGLCLGYGLAFALGKVNMSALNVEMLMSFNIPQPFKYGIDFNISSFIAIGLVYLITAIEATGDVTANSMISGLPIEGDSYLKRVSGGVMADGFNSLLAGIFNSFPNSIFAQNNGIIQLTGVASRYVGYYIAAMLVLLGLFPIVGAIFSLMPDPVLGGATLLMFGTVAAAGIRIVSSQEIGRKETLVLAVSLSLGLGVELMPDVLKQAPEAIRSIFSSGITTGGLTAIVANMVIRVK” as the sequence, how does the protein production read?
Answer: The protein production was “not failed”.

Question: With “MKTEARILKECLAAAAPNCLHSILPPVVRDDQTRSMNKPMESYYHQFLEEFRLPLTNPVLVFSLVLFIILLAPIVSKRFNIPGTVGLILSGVLIGPHSLNLLEKSSAVELFSTIGLLYILLIAGLELDVNDFRKNRYKSALFGLLTFSIPIVLGYPVCRYLLNYPMSTSLLTASMFATHTLVAYPVVSRMGISKNRTVAITVAGTILSDTAVLILLAVIIGYSRGDINHEFWLHLVIALTLFSAIVFIVLPAIARWFFTKLENEKHAHYIFVLAALFFSAFLAKAAGLEPIVGAFAAGLALNPLIPGSSALMNRIEFIGNSLFIPFFLISVGMLVDLRIILSSPIALIIAALLTFVALAGKWLAALSTQKIFGYSAAHRRLIFGLSSSRAAATIAIALVGYRARILDLNILNAIIILILVTCIVSSLVTEKAAKEIVLEENDAAPEKEHAQGDADEQILLPIAENKPSERVLELAVMIREKRSLNPLTILTVVPNDHEAELNVKKAKKELAPTVDFAASFDTSLNIVATIDYNICSGISRAVKESQSNLIIFDWPSRQGFLGRMINDATESIVECTCKTTMICHLTRPLAIHRRIVVICPPFAEKEKGFGQWLRKMSRLSQELTIPLLFHCDRKSRLAIIETLKTSHSTSPVLYEVFKNFREWEDIASRKLHFREDDIVTFVCARRESISYKPFFDLVPEQLEKHVKDISKIMIYPEQFDSAIIEEEYADVVAPKSFPFGASTIRKIREEISGFMKKNQLQIRKKARGKTAATPKRFGFSRKEP” as the sequence, how does the protein production read?
Answer: Its protein production is “failed”.

Question: Which protein production does the source give for “MKTFTLQDAGDIRRLLTERLMQSVNAGTVPWRQNIIRHGVPIHALSGQLFTGINVLLLWQSALQNGLTSNRWLTGDDLRSLGGSIIPGQRPTTIVRYTPSLSLFRVINIEQCDGLPTELRAGWPWPPAPVPGMERIEKWQRASQVPVLYRGQRPAVYLSESDRIELPGSDQGNLDSLTALLVSATGHPTRLGRSCFTGSDVPERDEYLQESLVADVGRAFLAALAGIPLAGTPMWNGELGSDPWILFKSASEAGKAVDWLEKQRLTTLPFDDVQHWQRLAAHLLTTHYGQQLDDTTLVCDSVVHQHLRYNISPGNAVNALARIYDWPRSDVAPALFILELNSVADAFASFSLNPGSLVVHRVASDIDDNKVVLEAPELETLFLPPPFAKSVDEVAANDEEEGGDPDDPGNLAALPWVRNQGRSNPHRATFIRQFQEIAPYENRWTVFSDFIHMSAAALHNRCHFVQEIEDDYLRRIKRYKKADQNRFPLLFNTLVEGMEFSASDFLGSVFMELELGDQRRGQYFTPYSVGYMMAKLQLADGLPALTSGERDFITVSDPACGAGGLIVAMAQAMLEAGFNPQKQMMAVCVDIDPVAAMMAYVQLALCGIPAMVIVGNSLSMEFRQTWRTPFWMMFGWERKWAREQERKAQQKVA” here?
Answer: Its protein production is “failed”.

Question: Which protein production does the source give for “MKTINLSIFGLGNVGLNLLRIIRSFNEENRLGLKFNVVFVADSLHSYYNERIDIGKVISYKEKGSLDSLEYESISASEALARDFDIVVDATPASADGKKELAFYKETFENGKDVVTANKSGLANFWPEIMEYARSNNRRIRYEATVAGGVPLFSFIDYSVLPSRIKKFRGIVSLTINYFIRELANKREFDDVLSEATKLGIVEKNYKDDLTGLDAARKSVILCNHLYGSSYRLSDVFYEGILDQDRSFGKNERLVTETGIVNGKPSAESRIKSLDSNDYLLTLGKGSLGYQLQTDTNGTLNVSDLYDGPYETAGAVMNDLVILSMFTV” here?
Answer: The protein production was “not failed”.

Question: With “MKTIQPCSVEDIQSWLIDQFAQQLDVDPDDIDMEESFDNYDLNSSKALILLGRLEKWLGKELNPVLIFNYPTIAQLAKRLGELYL” as the sequence, how does the protein production read?
Answer: The protein production was “not failed”.

Question: Which protein production does the source give for “MKTIRAILNGKKAGNPELRDAIMKMRDRGVDVQVRVTWESQDMPRLVKEAVTDGIERIVVAGGDGTVNEAASALIHIDHESRPELAIIPLGTANDFATANHIPDSIADALTLAVEGQALSVDCVKANDRCFINVAAAGFGAEVTAETPVELKNFLGGGAYTLTGVVKALGFKPYDGSITIEGGRYDGEMLLGAFCNSRLAGGGQQLAPNAMIDDGLMDLTLVRPFLPHELPKVIEEINNPSEKGEFVKHTRASWLEIDFPNPLPLNLDGEPYHSRKIRFEVQPKSLKLVLPKDCPCVTH” here?
Answer: The protein production was “failed”.

Question: Which protein production does the source give for “MKTKSWIASLFYSSLCFSSSYAINLHQITITDPIMGSRTITYEQVGEFAVVEGDILIGKAENLKNQGAVITPKVGGSRWPNGVIPYEIAENLPFINKLAILQAIDHWQKNTNLEFVELTSKNRYDYRDYISFIPAEGTTCSSYVGRQGGKQEINLAPRCTTMNTVHEIGHALGMWHEQSRSDRNQYIRIVWENIDEEHKFNFDQHLTDGKDFGEYDYGSIMHYGRFAFSKNGQPTIIPLVDGVEIGQRTHLSEKDIAAVKAMYPET” here?
Answer: Its protein production is “failed”.

Question: For “MKTLKVYIPGIKFPSISVTGNYCALNCAHCGRHYLEGMKKITRLNLVDKCVEMEKEGYVGCLLSGGMDSRLKVPLDKFKDEIREIKEKTRLKINAHVGFIDEDDLEWLKYIDVVSLDFVGDNEVIKRVYKIDKTVNDYLKILDILTKERIKVAPHITIGLDFGRIHWEYEAIDLLSEYPIDVLVLNILIPTPGTEMENVKVSMEEALNVVRYAREEFKGELSIGCMRPFGRWREEFDKRAILIGVDRITNPPRKVIEWAKQFRKVEIHFECCVI”, which protein production is on record?
Answer: Its protein production is “failed”.

Question: With “MKTLQTHRVLQALIGHFTPFLESGITELMINTEQELWLYKVNNTREKRGHALFDKAFLLRFCEQLASFRGLFFDEEHPTLNCSIPFTRYRVSANHFSITTNNQITLNIRVPRLKPLSLEDFTFKASDPKSLKDLALKGHNILISGETSSGKTSLLNALLDCVNKDERVVSVEDSQELDLKAFSNCVGLLVGKQENTRFNYEDALNMAMRLNPDRLIVGEIDTRNAALFLRLGNTGHKGMLSTIHANSAQNTLEALSLNLSMRYMYSLDKDLMRAYFKSAIDVIVHVNRINNERQIAEVLWTKEL” as the sequence, how does the protein production read?
Answer: The protein production was “failed”.

Question: For “MKTNAGRFFEDYRLGETIAHAVPRTVSGGERALYHALYPARHALSSSDEFARACGLPAAPVDELMAFHLVFGKTVPDISLNAVANLGYAEGRWLKPVFPGDTLRAESTVIGLKENSNGASGVVWVRTRGLNQQGEAVLSYVRWVMVRKRDTAAPAPAPTVPELAGSVAASDLVIPEGLSFTDYDLTLAGEPHRWGDYAVGEKIDHVDGVTVEESEHMLATRLWQNTAKVHFDATNRPDGRRLIYGGHVISLARTLSFNGLANAQMIVALNAGAHANPCFAGDTVRAWSEVLDKAETADPGVGALRLRLVAMKHGTEPFVTRSEDGKYLPGVLLDLDYWALVPR”, which protein production is on record?
Answer: The protein production was “failed”.

Question: For “MKTNEVLETIKARRSVRAYDRKQIPADDLNAILEAGAYAPSGMHYETWHFTAVCNTVKLEELNERIKGAFAKSDDKHLRERGHSETYCCYYHAPTLVIVSNEPKQWWAGMDCACAIENMFLAATSLGIASCWINQLGTTCDDPEVRAYLTSLGVPENHKVYGCVALGYKAEGALLKEKTVKAGTITIVE”, which protein production is on record?
Answer: The protein production was “not failed”.

Question: With “MKTPTRVSFEKKIHTPPSGDRDAERSPPKKFLRGLSGKVFRKTPEFKKQQMPTFGYIEESQFTPNLGLMMSKRGNIPKPLNLSKPISPPPSLKKTAGSVASGFSKTGQLSALQSPVNITSSNKYNIKATNLTTSLLRESISDSTTMCDTLSDINLTVMDEDYRIDGDSYYEEDSPTFMISLERNIKKCNSQFSPKRYIGEKCLICEESISSTFTGEKVVESTCSHTSHYNCYLMLFETLYFQGKFPECKICGEVSKPKDKDIVPEMVSKLLTGAGAHDDGPSSNMQQQWIDLKTARSFTGEFPQFTPQEQLIRTADISCDGFRTPRLSNSNQFEAVSYLDSPFLNSPFVNKMATTDPFDLSDDEKLDCDDEIDESAAEVWFSKTGGEHVMVSVKFQEMRTSDDLGVLQDVNHVDHEELEEREKEWKKKIDQYIETNVDKDSEFGSLILFDKLMYSDDGEQWVDNNLVILFSKFLVLFDFEEMKILGKIPRDQFYQVIKFNEDVLLCSLKSTNIPEIYLRFNENCEKWLLPKWKYCLENSSLETLPLSEIVSTVKELSHVNIIGALGAPPDVISAQSHDSRLPWKRLHSDTPLKLIVCLNLSHADGELYRKRVLKSVHQILDGLNTDDLLGIVVVGRDGSGVVGPFGTFIGMINKNWDGWTTFLDNLEVVNPNVFRDEKQQYKVTLQTCERLASTSAYVDTDDHIATGYAKQILVLNGSDVVDIEHDQKLKKAFDQLSYHWRYEISQRRMTPLNASIKQFLEELHTKRYLDVTLRLPQATFEQVYLGDMAAGEQKTRLIMDEHPHSSLIEIEYFDLVKQQRIHQTLEVPNL” as the sequence, how does the protein production read?
Answer: The protein production was “failed”.

Question: For “MKTTRTCKINSITKEQTEALITLIRTFESAKRYSFNRLIEGESEKELIKKLQLKYLLNKRFCEDAVLQVQTILSSQKELLPVYLENNQKKLEKTLQKKMIMKVAGKTQKKFH”, which protein production is on record?
Answer: Its protein production is “failed”.

Question: With “MKTVGVVLSGCGVLDGAEIHESVLTMLALDRAGAEVLFFAPDKPQLHVINHITGEIVAEERNVLVESARIARGLITPLSAADPEVLDALIVPGGFGAAKNLCDFAIKGGECSVEPDLYKLIQLMHKSGKPIGLMCISPVMLPKLLGKPIRLTIGNDPDTIDAIEIMGGEHVICPADDVVIDLENKVVTTPAYMLAGSISEAAKGIDKLVTKVLDLTE” as the sequence, how does the protein production read?
Answer: Its protein production is “failed”.

Question: With “MKTVNIGLIGAGRIGQLHASNIISSPYMELKAVSDVQLDHLKGTEIERSVEIMTTNPDELFSNRDIDAIFICSSTDTHAAFIKAAALAGKHIFCEKPISFHVTETKGALNIVNEAGVKFQVGFNRRYDKHFRRVQECVQAGAIGAPHIIRVSSRDPEAPPLSYVERSGGMFMDMTIHDFDMVRYLSGSEVTEVSVKAANLVDSRIGEVGDVDTAIITLMLENGAIAVIDNSRQAAYGYDQRVEVFGSLGSVSADNERKTNVQISTKDTVTLDLPKHFFLDRYEQAYKDEVAEFATAILEDQPLRCTGEDGYKAELLALAAKQSWLENRPVAVKDVEVLEEHAKSE” as the sequence, how does the protein production read?
Answer: The protein production was “failed”.

Question: With “MKVFFNKIPLALSSLVLALFSLSNQISQYTLFSQGIWLIAVFGFFLVLGRPIIGYRQTQEDLHNPVIASAFPSFFMAAFLFAGRLPLAQADLSIAWIVVLIGLYIAYIIFFSLRFLRPLVLEQVYPSWFVVYVGPAINLVTIPDSIPNSTKALILGLTGLATLALFPLIFWRMRRLAIPQPVLPILAILAAPLALLITSSIKSGQKPDTILLVGLLIFSQLFFFFALGLFTRLVNKGFVPLFAAFSFPLVNSINAFKAATTSLGLVNPATQLVYKVEFVFVLVIMTYLLYHFLKLLYKALIQALNTKKQAGSV” as the sequence, how does the protein production read?
Answer: The protein production was “failed”.
